Experimental data from the DeepSol protein solubility set.

Experiment: soluble on expression in E. coli; label from the status in PepcDB or PDB records

Row | Sequence | soluble on expression in E. coli
1 | MAIQHPDIQPAVNHSVQVAIAGAGPVGLMMANYLGQMGIDVLVVEKLDKLIDYPRAIGIDDEALRTMQSVGLVDNVLPHTTPWHAMRFLTPKGRCFADIQPMTDEFGWPRRNAFIQPQVDAVMLEGVSRFPNVRCLFSRELEAFSQQDDEVTLHLKTAEGLREIVKAQWLVACDGGASFVRRTLNVPFEGKTAPNQWIVVDIANDPLSTPHIYLCCDPVRPYVSAALPHAVRRFEFMVMPGETEEQLREPQNMRKLLSKVLPNPDNVELIRQRVYTHNARLAQRFRIDRVLLAGDAAHIMPVWQGQGYNSGMRDAFNLAWKLALVIQGKARDALLDTYQQERRDHAKAMIDLSVTAGNVLAPPKRWQGTLRDGVSWLLNYLPPVKRYFLEMRFKPMPQYYGGALVREGEAKHSPVGKMFIQPKVTLENGDVTLLDNAIGANFAVIGWGCNPLWGMSDEQIQQWRALSTRFIQVVPEVQIHTAQDNHDGVLRVGDTQGRLRSWFAQHNASLVVMRPDRFVAATAIPQTLGKTLNKLASVMTLTRPDADVSVEKVA | not soluble
2 | MSLATKVTLKDVAARAGVSYQTVSKVLNGEMQVAPETMERIQAAVQELGYRPNRIARNMRAGRSFMIGYSWTQTEPGQVNHILDQFLSSMVREAGAVNYFVLPFPFSEDRSQIDIYRDLIRSGNVDGFVLSSINYNDPRVQFLLKQKFPFVAFGRSNPDWDFAWVDIDGTAGTRQAVEYLIGRGHRRIAILAWPEDSRVGNDRLQGYLEAMQTAQLPIETGYILRGEGTFEVGRAMTLHLLDLSPERRPTAIMTLNDTMAIGAMAAARERGLTIGTDLAIIGFDDAPMVQYLFPPLSSVRQPIAEAGRKCIELLVAIVEGREPEQKHILLQPSLIIRASEGHHHHHH | soluble
3 | MGSDKIHHHHHHMINKHVISEKIKKAIVEANIKINPEVEEIIERYEGPFSDIIKENYRVSKEEKLPLCQDTGIVEFFVFIGHEVKLEEPIEETLNRAVGEVYSEYPFRYSVVSDPLFERINTGTNTPAIVHIFQVKGKSLEIRFLVKGGGSENLTVLRMMTPTSDVEKVKEFVIEHIKEHGAKACPPLHVGIGIGGTADKALLLSKLALTKSFKERNKDPKYAGLEKELEKELNFLGIGFQGLGKGITVYSVHIEHFPTHIATLPVAVSVDCYLCRRGKVTFED | not soluble
4 | MSLAIPRQKMPAQDPVERVGNFKEVNLGLTPEQAQQEALRCIQCKDPVCIAGCPVNIKIDQFIKLIAEGDFMGAVRKIKEDNVLPSICGRVCPQEDQCEKVCVIGKKHEPVAIGNLERFVGDYERTSGQKIDPKIAPPTGKKVAVVGSGPAGLSCANDLAQYGHKVVVFEALHELGGVLMYGIPEFRLPKEIVREELDGLRRMGIEFRTDVVVGRTITIDELMEEEGFDAVFIGVGAGLPWFMGIPGENLVGVLAANEFLTRVNLMKAYDFLKSSDTPVFDCKGKNVAVFGGGNTAMDAVRTAKRLGAEHAYIVYRRSEKEMPAREEEIHNAKEEGIEFLLLTTPLEFVGDEKAWLTGAKCQKMELGEPDDSGRRRPVPVEGSEYILPIDMAIISIGNGPNPLIHQTTPDIEVSKRETIVVDVNTMQTSKENVYAGGDIVTGGATVILAMGAGRKAAAAINEKLGGTAKNEGHHHHHH | soluble
5 | MTERILEVNDLHVSFDITAGEVQAVRGVDFYLNKGETLAIVGESGSGKSVTTKAITKLFQGDTGRIKKGEILFLGEDLAKKPENELIKLRGKDISMIFQDPMTSLNPTMQIGKQVMEPLIKHKNYSKAQAKKRALEILNLVGLPNAEKRFKAYPHQFSGGQRQRIVIATALACEPKVLIADEPTTALDVTMQAQILDLMKELQQKIDTAIIFITHDLGVVANIADRVAVMYGGQMVETGDVNEIFYDPKHPYTWGLLSSMPDLSTTNDTPLLAIPGAPPDLLHPPKGDAFARRSQYALDIDFKVEPPWFKVSPTHFVKSWLLDARAPKVELPELVKQRMKPMPNNYEKPLKVERVSFNEK | not soluble
6 | MGSDKIHHHHHHMNTHKHARLTFLRRLEMVQQLIAHQVCVPEAARAYGVTAPTVRKWLGRFLAQGQAGLADASSRPTVSPRAIAPAKALAIVELRRKRLTQARIAQALGVSASTVSRVLARAGLSHLADLEPAEPVVRYEHQAPGDLLHIDIKKLGRIQRPGHRVTGNRRDTVEGAGWDFVFVAIDDHARVAFTDIHPDERFPSAVQFLKDAVAYYQRLGVTIQRLLTDNGSAFRSRAFAALCHELGIKHRFTRPYRPQTNGKAERFIQSALREWAYAHTYQNSQHRADAMKSWLHHYNWHRPHQGIGRAVPISRLNLDEYNLLTVHS | not soluble
7 | MGSDKIHHHHHHMAISVTAEEKQILAGVTIPPRPQALLDISKEAKQEYPDVSKIAKAISEDVGISAAVLQVVNSVAFRRNNQISSIHQAVMTLGIKRIFPLVKAVAIKGALPENPMLNEFWQSSSMVASACTLYANLLGKANLSDNAYMLGLFHNAGVPVMLQAFPAYQALLMRGITEGWGEVASLEVQEFKTSHTTLGALLAQQWELPKPMVEVIYYLHDIDGIFTSGELSEVGLYLLAILKLARSSVDGVIRGECNTDEWLKIQDPLLAFLNLDEVQLDEFREEVAEKLRSEG | not soluble
8 | GHMLVYNQEELVRFVEEAKQYARYGKVADYIPALGKANPNELSIAIYTPDDEVVSAGDVTVKVTLQSISKIIALALVLIDRGEDEVFHKVGMEPTDYPFHSIAKLEEKPAKPLNPMINAGALVVTSMIQGGSVSERLERLLAFVRRLAGNERISYSDEVARSEFETAFLNRSLCYFLKQHRIIDEDVEELMELYTKQCAIEMTCIDLARIGLVLALDGRDPHSSEPLMPLDVARICKTFMVTCGMYNSSGEFAIKVGIPAKSGVSGGILAAVPGRCGIGVFGPALDDKGNSLTGVKLLERLSKTYSLSIF | soluble
9 | MESTQKDIKLEPDEFNYIIAPGAPESENLAENPENPVDLSEIPLETKPAWFPSSKGRSIVWEHITWVAESQRAACNYCAAEFQVKGGTSALLRHLKTIHPAAINFDPENPPPVARRKRKKMEDYTIVTEDTKSYMDNLLEQFLNVDDSAPRGGLPDHDSPQHMLVVDPQSRADSEIDAVIRNLQQETEQNGLLEPEPDQALKKLLGIDDGRCEEVIAIAAPIQQDEEKQVSSSSGGAQTKKRRADEQKLTENPALNSGKFSLSILSAIRRPPLPSSTATSSSAAAPQIPAMTSSAVASATSAAAAATPMMPAKYNAQAVQILDFEAKVLYNQSLHSTIAREDAMTTYYRMKSRKLELEIKKLERELGEEQDEAQEHEE | not soluble
10 | MLNEFDQYLHERYLSGKARKDRWYWNNSIQRGRSTAVRENWQWKPAVAYCRYADDFVLIVKGTKAQAEAIREECRGVLEGSLKLRLNMDKTKITHVNDGFIFLGHRIIRKRSRYGEMRVVSTIPQEKARNFAASLTALLSGNYSESKVDMAEQLNRKLKGWAMFYQFVDFKAKVFSYIDRVVFWKLAHWLARKYRTGIASLMRWWCKSPKPGQSKTWVLFGKTNHGKLSGEILYRLVGQGKKLFRWRLPEGNPYLRTETRNTYTSRFTEVAMAFASILEHHHHHH | soluble
11 | MDIISVALKRHSTKAFDASKKLTPEQAEQIKTLLQYSPSSTNSQPWHFIVASTEEGKARVAKSAAGNYVFNERKMLDASHVVVFCAKTAMDDVWLKLVVDQEDADGRFATPEAKAANDKGRKFFADMHRKDLHDDAEWMAKQVYLNVGNFLLGVAALGLDAVPIEGFDAAILDAEFGLKEKGYTSLVVVPVGHHSVEDFNATLPKSRLPQNITLTEV | soluble
12 | MGSDKIHHHHHHMHSDEEIFKETTPKALLQLLKKDYYFHDYCYQEIIPRGKEIKMNNSKGFQIYLVESGYFSYCLQNEYGDSGIISFVGGEIAINLIPIIKEEPEESVLRSLTEVHCWVLDPDFVERVLDESGQKAKYLLSNLLYTRKVYFKASKRNFMKKELRIRACLKELGLYMGRVTKEKEFILPDEINNSILAQYANTTREYTNIIVLKLRKEGILDDSHKPWVIKKIDIL | not soluble
13 | MGHHHHHHSHMSSMQRRAFVALGLMAMLAACSPAKKEDAAAGQTPIKLATDWRAQAELGGYYQALATGEYKKRGLDVTLIQGGPAVNVPQLLATGAVDVGVGSNSFIIMNLAKENAPVKAVAAFMQKDPQVLIAHPDQGINGIADMKGRPILLSDASVTAFWVWLKAKYGFTDDQVRKYNYSSAPFLADKRVVQQGYATSEPYLIEKEGKIKPAVFLLADSGYPAYASFALVPDSLIAKNPAAVQAFVEATAAGWTSYLYGDPKPGDAAILKDNPEMTQDVLDQAREKMRSYGIVSANGGRGDIGQMTDARWAEFFKVASEQGVYPADMDYKKAYTLQFLPKGP | not soluble
14 | MGSDKIHHHHHHMVTSPSLKGLQAFEAAARAGSFAAAAEELSVSAAAVSQLIRTVEEQMGRKLFHRVNRKVVLTEAGVEILPRLTMAFQEIGSVSRELDGDAFRPRLVVSVPPSMAMGWLSQRLAGFVASHGAADISLRGDDDPVPFDRELIDIRLSYGPHYREHPTEDIARDAVYPVCAPGLASAIKADGGPLAGLPLIHTDWGPTGASFPSWRNWFEAEGVQPGRAAQRGLSANSSRAALDLAISGLGVTLAQGVYCAEALEDGRLVRPAARVIALRQPYCLTIPERSARRDVVAAFRDWLIEECRRAVGSPALR | not soluble
15 | MSLSDAFLSSIKNRRTIYALDKQLPVSQEKIVELVKEAVSHSPSAFNSQSSRVVVLFGAEHEQFWNIAKDELKKIVPADAFAATETKLNSFAAGAGTVLFFEDQTVVRQLQEQFALYADNFPVWSEQASGMAQFAVWTALAEHKVGASLQHYNPLVDAQTHKTWNLPESWKLRAQMPFGAIAAPAGEKAFIAESERFKVFGNEGGSHHHHHH | soluble
16 | MANKETDILIIGGGLTGASLSLALQGLGFSVTLVESRPYSDKVNPDFDARSLALSPASQRILAMLGVWEILKEYTTPIHMIHVSDQHRFGASRLHGEKNSPLGYVVEMQYINRALSILINKEHLLTPAALKSIDFNNSTATVAHGDDMISIRAQLIVAADGTESMTRYLCNLPVKIKDYAQDAIVANVGLIKPHGNRAFERFTPNGPLALLPMMNDKMSLVWASKPEEAKRLVMLNDDDFLRELQTAFGYRLGRFGKVGKRYSYPLKQVLMPQQTKWPVVFVGNAAHTLHPVAGQGFNLGLRDIAALAQCISQKGLNPQMLEHYLQLRAHDQQMITWLTDGLIHLFTSRLPGMGVARNLGLLALDNIPALKNLLARYARGFGGITPDLVCEIALSAGEFQLEHHHHHH | soluble
17 | THRAFNPKTLYIDASTSALKYSQGSTVYFRLPLDDIVRVQIQKESFSSQSLMIYTVNDSYQVPNSDNFDSLQLKYLMKKLEKRLDDQRR | not soluble
18 | MSNEKFNNVPKPAGNGPHTPEDHAIKGELTFEDKVVQKIIGLALENVDGLLTVDGGFFSNIAEKLVNTDNVTAGIDTEVGKKQVAVDMDIVVEYGKDIQDIYEKMKELISREVKKMTHLDVIEVNVNVVDIKSKEEYEEDSETVQDKVTGAAKSTGEFASEQTEKAKKAVNKGTEQVKENMEPRVELEHHHHHH | soluble
19 | MEEVINYRSDLFRLSDNLETLHIEEKFGIKCDLTCKIEENMTTFEFQFDLRDFKNNGFKQLTAEITIRPDPENPIFELIHRKLDILDIDEHRVNFSVENKNTQSLAETRAILELILTPIREKFSYREMFMPSQKTDAILMIGGEKLHVNKAFLSFHSDFFHELFSASSTESEIPEIPIRDVSAEDMGLLLSTIYPDLVFPTDKTAAKLLTLANRFQMRAVTAQVEHHLLWHSDIEIEKLILMANTFGMKDLLKECTCDGGNKTPGEVPISVQ | not soluble
